Laboratory results taken from PMC9491713.

Biological target: cSFB-RBPJ protein purified from 293F cells, Q06330
Test: BLI
Conditions: remark: other sources report otherwise

B1: FLAG-FBXO42 protein purified from 293F cells, Q6P3S6 1-717 (natural protein)
chain: MASSSDSEDDSFMAVDQEETVLEGTMDQDEEPHPVLEAEETRHNRSMSELPEEVLEYILSFLSPYQEHKTAALVCKQWYRLIKGVAHQCYHGFMKAVQEGNIQWESRTYPYPGTPITQRFSHSACYYDANQSMYVFGGCTQSSCNAAFNDLWRLDLNSKEWIRPLASGSYPSPKAGATLVVYKDLLVLFGGWTRPSPYPLHQPERFFDEIHTYSPSKNWWNCIVTTHGPPPMAGHSSCVIDDKMIVFGGSLGSRQMSNDVWVLDLEQWAWSKPNISGPSPHPRGGQSQIVIDDATILILGGCGGPNALFKDAWLLHMHSGPWAWQPLKVENEEHGAPELWCHPACRVGQCVVVFSQAPSGRAPLSPSLNSRPSPISATPPALVPETREYRSQSPVRSMDEAPCVNGRWGTLRPRAQRQTPSGSREGSLSPARGDGSPILNGGSLSPGTAAVGGSSLDSPVQAISPSTPSAPEGYDLKIGLSLAPRRGSLPDQKDLRLGSIDLNWDLKPASSSNPMDGMDNRTVGGSMRHPPEQTNGVHTPPHVASALAGAVSPGALRRSLEAIKAMSSKGPSASAALSPPLGSSPGSPGSQSLSSGETVPIPRPGPAQGDGHSLPPIARRLGHHPPQSLNVGKPLYQSMNCKPMQMYVLDIKDTKEKGRVKWKVFNSSSVVGPPETSLHTVVQGRGELIIFGGLMDKKQNVKYYPKTNALYFVRAKR
Kd: 47 nM
